From patent publication US20200024354A1 (OSSIANIX, published 2020)

Columns and labels:
[1] = target: recombinant mouse BAFF (R&D Systems) (mouse, UniProt Q9WU72 127-309); test: cell-based or functional assay
[2] = target: recombinant human BAFF-Fc (Sino Biological) (human) (UniProt Q9Y275); test: cell-based or functional assay
[3] = target: T1, recombinant human BAFF-Fc (Sino Biological) (human, UniProt Q9Y275 134-285); test: cell-based or functional assay
[4] = target: T1, recombinant human BAFF-Fc (Sino …); test: blocking ELISA: periplasmic extract + 1.14 nM BAFF-Fc on coated BAFF-R extracellular domain, anti-human Fc-HRP
Protocol: The ability of selected BAFF-specific VNARs to prevent the binding of BAFF to its receptor (BAFF-R) was tested in a blocking ELISA format. Briefly, selected clones were grown in 96 deep-well plates and the periplasmic fraction was extracted as described above. Nunc Maxisorp 96-well plates were coated at 1 μg/mL with the BAFF-R extracellular domain (Peprotech) and blocked in PBS-0.1% Tween+2.5% milk. The periplasmic fraction was also pre-blocked in PBS-0.1% Tween-20+2.5% milk in the presence of 1.14 nM BAFF-Fc (Sino Biological) before being exposed to the BAFF-R coated surface. After washing in PBS-0.1% Tween-20, BAFF bound to its receptor was detected via its Fc moiety using a peroxidase-conjugated anti-human Fc (Sigma). Absorbance at 450 nm was recorded using an Envision multiwell reader (Perkin Elmer) (FIG. 8) and clones reducing the amount of BAFF bound to its receptor by more than 50% were selected as specific blockers.

human BAFF (recombinant) [5] = target: T2, human BAFF (recombinant) (human, UniProt Q9Y275 134-285); test: ELISA on coated human BAFF
T2 construct: also called hBAFF; recombinant BAFF (Sino biologicals)

human BAFF (recombinant) [6] = target: T2, human BAFF (recombinant); test: ELISA on coated human BAFF (legend of FIG. 18; rounded form of 0.632 nM)
Protocol: Based on the results of Example 11, the A07 anti-BAFF molecule was reformatted as a mouse Fc fusion protein with effector function intact. The protein was expressed and purified as described above and EC50 binding to human BAFF was assessed by ELISA as previously described. […] Mice are then injected i.p. with 100 μg of A07-Fc, 5A7-Fc, or blank control (PBS) on day 0 and again on day 4, 8, and 12 before being be culled on day 15. B cell subset populations in the spleen are analysed by flow cytometry as described above and improvements in B cell depletion are anticipated.

Chain of recombinant mouse BAFF (R&D Systems) (Q9WU72 127-309 limits assumed): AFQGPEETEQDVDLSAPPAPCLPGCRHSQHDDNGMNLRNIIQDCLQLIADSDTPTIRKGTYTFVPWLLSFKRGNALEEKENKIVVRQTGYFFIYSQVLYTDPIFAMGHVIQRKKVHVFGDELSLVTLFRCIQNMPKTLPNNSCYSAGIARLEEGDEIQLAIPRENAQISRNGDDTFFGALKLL
T1 sequence (Q9Y275 134-285): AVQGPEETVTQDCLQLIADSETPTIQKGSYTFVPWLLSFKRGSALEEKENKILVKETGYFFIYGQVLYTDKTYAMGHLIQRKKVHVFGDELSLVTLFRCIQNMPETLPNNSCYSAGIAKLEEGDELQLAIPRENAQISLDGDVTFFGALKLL
T2 sequence (Q9Y275 134-285 limits assumed): as the sequence (Q9Y275 134-285) above
Chain of recombinant human BAFF-Fc (Sino Biological) (human) (Q9Y275 134-285): as above

BAFFr (positive control, Example 10) (from UniProt Q96RJ3 1-76) (receptor)
IC50 (mouse), proliferation of mouse splenic B cells [1]: 7.06 nM | IC50 (human), proliferation of mouse splenic B cells [2]: 66.2 nM

B1: A07 formatted as a human Fc fusion (Fc fusion, not shown: a dimerising Fc or GST)
chain: AQAAARVDQTPQTITKETGESLTINCVLRDSNCALSNLYWYRKKSGSTNEESISLGGRYVETVNSGSKSFSLRINDLTVEDSGTYRCKVQLPYDPLTKECILGRMDVYGDGTAVTVN
IC50 (mouse), proliferation of mouse splenic B cells [1]: 1.95 nM | IC50 (human), proliferation of mouse splenic B cells [3]: 2.48 nM

B2: ID2-101B08 (VNAR)
VNAR: AARVDQTPQTITKETGESLTINCVLRDSNCALSSTLWYRTKSGSRNEESISKGGRYVETVNSGSKSFSLKINDLTVEDSGTYRCKVPRDLLLCKRPRARLPDVYGGGTAVTVNA
notes: Nurse shark VNAR single domain, monomer in periplasmic extract
binding result [4]: binds

B3: B07 formatted as a human Fc fusion (Fc fusion, not shown: a dimerising Fc or GST)
chain: AQAAARVDQTPRSVTKETGESLTINCVLRDSICALSSTHWYRKKSGSTNEESISKGGRYVETVNSGSKSFSLRINDLTVEDSGTYRCKVHGGRSTGLCGDVLLAGDVYGGGTAVTVN
IC50 (mouse), proliferation of mouse splenic B cells [1]: 604 nM | IC50 (human), proliferation of mouse splenic B cells [3]: 3.79 nM

B4: A07 formatted as a mouse Fc fusion protein with effector function intact (Fc fusion)
chain: AQAAARVDQTPQTITKETGESLTINCVLRDSNCALSNLYWYRKKSGSTNEESISLGGRYVETVNSGSKSFSLRINDLTVEDSGTYRCKVQLPYDPLTKECILGRMDVYGDGTAVTVNAASGAHHHHHHGADYKDDDDK
notes: also called A07-mFc; not shown: mouse Fc with effector function
EC50 (human BAFF (recombinant) [5]): ~0.632 nM | EC50 (human BAFF (recombinant) [6]): ~0.6 nM
